# Substitutions are numbered along the chain they refer to.
# T1: human IL2Ra (human, UniProt P01589 22-240, limits assumed)
# T1 construct: bought protein, coated on the plate; also called hIL2RA; IL-2 receptor alpha
# T1 sequence (looked up): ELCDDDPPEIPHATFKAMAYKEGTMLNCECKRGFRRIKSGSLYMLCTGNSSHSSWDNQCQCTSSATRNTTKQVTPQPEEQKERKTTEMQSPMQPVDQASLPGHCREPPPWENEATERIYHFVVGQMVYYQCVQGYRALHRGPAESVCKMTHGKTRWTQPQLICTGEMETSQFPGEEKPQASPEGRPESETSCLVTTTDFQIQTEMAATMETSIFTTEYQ
# T2: murine IL-11 (mouse, UniProt P47873 22-199)
# T2 sequence: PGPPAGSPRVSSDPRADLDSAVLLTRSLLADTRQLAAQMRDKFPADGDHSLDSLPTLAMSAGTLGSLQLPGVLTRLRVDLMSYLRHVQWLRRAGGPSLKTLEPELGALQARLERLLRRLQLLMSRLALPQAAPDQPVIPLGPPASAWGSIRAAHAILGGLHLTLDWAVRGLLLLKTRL
# T3: human IL-11 (human, UniProt P20809 22-199)
# T3 sequence: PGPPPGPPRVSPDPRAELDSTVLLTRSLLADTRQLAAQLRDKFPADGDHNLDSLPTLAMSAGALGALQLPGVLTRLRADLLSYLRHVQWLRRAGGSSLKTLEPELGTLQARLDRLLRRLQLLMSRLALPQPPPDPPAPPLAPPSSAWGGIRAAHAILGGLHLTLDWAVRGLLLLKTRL
# B1: TPP-26307 (antibody, V domains shown)
# VH: EVQLLESGGGLVQPGGSLRLSCAASGFTFSSYGMHWVRQAPGKGLEWVSVISYDGSYKYYADSVKGRFTISRDNSKNTLYLQMNSLRAEDTAVYYCAAGVPDYWGQGTLVTVSS
# VL: QSVLTQPPSASGTPGQRVTISCTGSSSNIGAGYDVHWYQQLPGTAPKLLIYSNNERPSGVPDRFSGSKSGTSASLAISGLRSEDEADYYCAAWDISLNGPVFGGGTKLTVL
# B2: TPP-26329 (antibody, V domains shown)
# VH: B1 VH with Y32W
# VL: B1 VL with I95D
# B3: TPP-26319 (antibody, V domains shown)
# VH: B1 VH
# VL: B1 VL with R56K, I95D
# B4: TPP-26330 (antibody, V domains shown)
# VH: B1 VH with S31F
# VL: B1 VL with I95D
# B5: TPP-26314 (antibody, V domains shown)
# VH: B1 VH
# VL: B1 VL with I95W
# B6: TPP-26318 (antibody, V domains shown)
# VH: B1 VH
# VL: B1 VL with D34F, I95D
# B7: TPP-26324 (antibody, V domains shown)
# VH: B1 VH with A61R
# VL: B1 VL with I95D
# B8: TPP-26316 (antibody, V domains shown)
# VH: B1 VH
# VL: B1 VL with I95M
# B9: TPP-26308 (antibody, V domains shown)
# VH: B1 VH
# VL: B1 VL with I95V
# B10: TPP-26313 (antibody, V domains shown)
# VH: B1 VH
# VL: B1 VL with G32Y, I95D
# B11: TPP-26317 (antibody, V domains shown)
# VH: B1 VH
# VL: B1 VL with G32E, I95D
# B12: TPP-26327 (antibody, V domains shown)
# VH: B1 VH with S52R
# VL: B1 VL with I95D
# B13: TPP-26325 (antibody, V domains shown)
# VH: B1 VH with S31W
# VL: B1 VL with I95D
# B14: TPP-26328 (antibody, V domains shown)
# VH: B1 VH with G99T
# VL: B1 VL with I95D
# B15: TPP-26326 (antibody, V domains shown)
# VH: B1 VH with S31Y
# VL: B1 VL with I95D
# B16: TPP-26309 (antibody, V domains shown)
# VH: B1 VH
# VL: B1 VL with I95F
# B17: TPP-26310 (antibody, V domains shown)
# VH: B1 VH
# VL: B1 VL with S58W, I95D
# B18: TPP-26323 (antibody, V domains shown)
# VH: B1 VH
# VL: B1 VL with I95G
# B19: TPP-26315 (antibody, V domains shown)
# VH: B1 VH
# VL: B1 VL with G32H, I95D
# B20: TPP-26332 (antibody, V domains shown)
# VH: B1 VH with G33K
# VL: B1 VL with I95D
# B21: TPP-26311 (antibody, V domains shown)
# VH: B1 VH
# VL: B1 VL with V35H, I95D
# B22: TPP-26321 (antibody, V domains shown)
# VH: B1 VH
# VL: B1 VL with I95L
# B23: TPP-26331 (antibody, V domains shown)
# VH: B1 VH with M34G
# VL: B1 VL with I95D
# B24: TPP-26320 (antibody, V domains shown)
# VH: B1 VH
# VL: B1 VL with N54E, I95D
# Target: T1, human IL2Ra
# Test: IL2Ra direct binding ELISA, signal ratio to isotype control
# Protocol: IL2RA (Peprotech, Germany, #200-02RC) was coated at 1 or 0 μg/ml (buffer only control) in 30 μl coating buffer (Candor, #113500) per well on a 384 well microtiter plate (Maxisorb, Nunc, #460518) over night at 4-8° C. After two washes with 50 μl/well washing buffer (PBS+0.05% Tween, pH 7.4), the plates were incubated for two hours at room temperature with 50 μl/well SmartBlock (Candor, #113500). After blocking, the plates were washed three times with washing buffer. Then, a dilution series of the respective antibody (1E-7 [M] down to 2E-13 [M]) in PBS+0.05% Tween, 10% SmartBlock were added in 30 μl to the microtiter plate and incubated for 90 min at room temperature. After three additional washes, 30 μl anti mouse IgG HRP-conjugated antibody (Biotechne, HAF007), diluted 1:1000 in PBS+0.05% Tween (pH 7.4), were added per well and incubated for one hour. After three additional washes, a mixture of Amplex red (Invitrogen, #12222, 10 mM stock solution in DMSO) 1:1000 diluted in PBS and H2O2 (30%, Merck, #107209)) diluted 1:10000 in PBS were added as substrate with 30 μl per well and incubated for 20 min in the dark. Relative fluorescence was measured with a microtiter plate reader at 535/590 nm.
# Next, the 42 antibodies were subjected to an IL2Ra binding ELISA as described in Example 20.
row,Binder,hIL2RA ELISA Binding: Ratio to Isotpye [ratio]
1,B1,176
2,B2,247
3,B3,235
4,B4,264
5,B5,455
6,B6,267
7,B7,247
8,B8,221
9,B9,188
10,B10,195
11,B11,31
12,B12,11
13,B13,542
14,B14,27
15,B15,516
16,B16,234
17,B17,231
18,B18,256
19,B19,205
20,B20,19
21,B21,292
22,B22,182
23,B23,107
24,B24,260

# Target: T2, murine IL-11
# Test: cell-based or functional assay
Binder,RGA Efficacy (%),RGA IC50 [nM]
B1,92.3,1.9
B2,95.5,1
B3,91.1,1.5
B4,88.2,1.3
B5,94.4,0.8
B6,82.3,4.7
B7,92.4,1.3
B8,90.4,1
B9,91.6,1.3
B10,96.2,0.66
B11,93.2,1.2
B12,38,470
B13,93,1.3
B14,70.8,64
B15,83,2
B16,92.2,0.94
B17,94.3,1.1
B18,95.9,0.92
B19,91.5,1.5
B20,0.9,–
B21,86.2,2.2
B22,93.5,1.1
B23,90.9,1.5
B24,100,1.5

# Target: T3, human IL-11
# Test: cell-based or functional assay
Binder,RGA Efficacy (%),RGA IC50 [nM]
B1,52.7,5.3
B2,67.1,2.6
B3,48.6,7.4
B4,64.8,3.4
B5,69.3,1.1
B6,45.9,2.4
B7,59,1.5
B8,69.4,1.6
B9,63.6,5.9
B10,76.1,1.7
B11,69.9,0.99
B12,15,–
B13,81.4,1.7
B14,18.6,–
B15,72,5.4
B16,63.9,1.5
B17,59.5,4.5
B18,57.6,2
B19,68.3,1.7
B20,0.8,–
B21,38.1,1.9
B22,71.3,2.1
B23,54.9,5.4
B24,70.3,7.4
